Legend:
Assay in all cases: two-hybrid; LexA-Cdc1 bait (pBTM116 or pBTM116BN) with Gal4-Pol3 prey and co-expressed c-myc-tagged Cdc27 (pAA-Cdc27) in S. cerevisiae CTY10-5d; ONPG liquid culture beta-galactosidase assay, mean of triplicates, as percent of wild-type Cdc1
Details in all cases: partners not purified
Cdc1-J7 = biological target: T1, Cdc1-J7 (Schizosaccharomyces pombe, UniProt P87324 1-462, Met-GlyValProLeuMet-Glu)
T1 construct: Cdc1, S. pombe, with a pentapeptide inserted after residue 393; source: yeast two-hybrid fusion, in S. cerevisiae CTY10-5d
T1 sequence (looked up): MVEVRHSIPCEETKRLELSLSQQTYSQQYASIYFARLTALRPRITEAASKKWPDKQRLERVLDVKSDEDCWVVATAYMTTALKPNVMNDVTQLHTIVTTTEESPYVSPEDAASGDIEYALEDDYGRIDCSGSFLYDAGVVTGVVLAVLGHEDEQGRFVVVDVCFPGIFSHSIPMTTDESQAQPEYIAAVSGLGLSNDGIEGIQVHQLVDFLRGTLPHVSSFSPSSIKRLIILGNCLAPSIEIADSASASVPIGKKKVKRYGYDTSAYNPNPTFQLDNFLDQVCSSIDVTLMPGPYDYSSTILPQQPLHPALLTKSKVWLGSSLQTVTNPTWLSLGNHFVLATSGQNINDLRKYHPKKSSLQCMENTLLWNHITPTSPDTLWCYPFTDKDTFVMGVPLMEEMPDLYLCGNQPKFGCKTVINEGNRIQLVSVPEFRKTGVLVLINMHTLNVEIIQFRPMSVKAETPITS

Cdc1-E4 = biological target: T2, Cdc1-E4 (Schizosaccharomyces pombe, UniProt P87324 1-462, Cys-GlyValProProCys-Glu)
T2 construct: Cdc1, S. pombe, with a pentapeptide inserted after residue 10; source: yeast two-hybrid fusion, in S. cerevisiae CTY10-5d
T2 sequence (looked up): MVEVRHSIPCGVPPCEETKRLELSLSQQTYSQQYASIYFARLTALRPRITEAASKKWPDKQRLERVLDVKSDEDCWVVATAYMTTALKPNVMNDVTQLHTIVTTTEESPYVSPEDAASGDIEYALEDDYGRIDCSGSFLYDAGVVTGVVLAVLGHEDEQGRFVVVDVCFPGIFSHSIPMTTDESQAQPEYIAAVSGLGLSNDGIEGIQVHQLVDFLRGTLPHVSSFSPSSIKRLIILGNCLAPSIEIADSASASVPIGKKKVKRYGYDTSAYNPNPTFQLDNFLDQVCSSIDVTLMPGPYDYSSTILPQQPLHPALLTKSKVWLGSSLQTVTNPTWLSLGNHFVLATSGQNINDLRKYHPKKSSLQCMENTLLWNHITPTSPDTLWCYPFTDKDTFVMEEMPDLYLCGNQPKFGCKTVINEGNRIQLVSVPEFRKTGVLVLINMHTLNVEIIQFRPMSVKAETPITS

Cdc1-A8 = biological target: T3, Cdc1-A8 (Schizosaccharomyces pombe, UniProt P87324 1-462, Pro374Ala)
T3 construct: Cdc1, S. pombe, point mutant; source: yeast two-hybrid fusion, in S. cerevisiae CTY10-5d
T3 sequence (looked up): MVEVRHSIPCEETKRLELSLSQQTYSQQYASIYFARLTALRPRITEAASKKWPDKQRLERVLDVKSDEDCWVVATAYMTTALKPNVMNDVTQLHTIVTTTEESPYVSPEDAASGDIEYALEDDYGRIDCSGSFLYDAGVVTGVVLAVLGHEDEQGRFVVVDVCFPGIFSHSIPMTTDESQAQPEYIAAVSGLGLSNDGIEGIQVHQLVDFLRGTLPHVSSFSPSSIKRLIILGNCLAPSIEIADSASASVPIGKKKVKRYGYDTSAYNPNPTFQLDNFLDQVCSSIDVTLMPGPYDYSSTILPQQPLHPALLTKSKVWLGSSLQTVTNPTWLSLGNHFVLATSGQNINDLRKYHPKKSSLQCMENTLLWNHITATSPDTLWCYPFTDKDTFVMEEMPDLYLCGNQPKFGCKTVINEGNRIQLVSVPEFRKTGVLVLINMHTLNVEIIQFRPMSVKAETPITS

Cdc1-J3 = biological target: T4, Cdc1-J3 (Schizosaccharomyces pombe, UniProt P87324 1-462, Leu-GlyValProLeuLeu-Asp)
T4 construct: Cdc1, S. pombe, with a pentapeptide inserted after residue 62; also called E3; E8; source: yeast two-hybrid fusion, in S. cerevisiae CTY10-5d
T4 sequence (looked up): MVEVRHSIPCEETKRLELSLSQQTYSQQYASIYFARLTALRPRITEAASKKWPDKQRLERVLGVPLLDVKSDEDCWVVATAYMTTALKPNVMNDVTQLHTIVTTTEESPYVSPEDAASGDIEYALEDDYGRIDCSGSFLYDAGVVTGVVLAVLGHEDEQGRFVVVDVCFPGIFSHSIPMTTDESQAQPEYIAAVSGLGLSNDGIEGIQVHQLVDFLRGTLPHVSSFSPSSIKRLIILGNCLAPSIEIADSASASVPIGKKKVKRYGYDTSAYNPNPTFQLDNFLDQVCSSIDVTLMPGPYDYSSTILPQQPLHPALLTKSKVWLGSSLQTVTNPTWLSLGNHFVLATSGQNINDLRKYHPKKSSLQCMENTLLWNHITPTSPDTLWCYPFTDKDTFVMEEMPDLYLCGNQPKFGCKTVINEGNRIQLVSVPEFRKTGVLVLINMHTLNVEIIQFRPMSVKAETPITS

B1: Pol3 (fission yeast DNA polymerase delta catalytic subunit) (natural protein, Schizosaccharomyces pombe, UniProt P30316 1-1086, looked up)
chain: MTDRSSNEGVVLNKENYPFPRRNGSIHGEITDVKRRRLSERNGYGDKKGSSSKEKTSSFEDELAEYASQLDQDEIKSSKDQQWQRPALPAINPEKDDIYFQQIDSEEFTEGSVPSIRLFGVTDNGNSILVHVVGFLPYFYVKAPVGFRPEMLERFTQDLDATCNGGVIDHCIIEMKENLYGFQGNEKSPFIKIFTTNPRILSRARNVFERGEFNFEELFPVGVGVTTFESNTQYLLRFMIDCDVVGMNWIHLPASKYQFRYQNRVSNCQIEAWINYKDLISLPAEGQWSKMAPLRIMSFDIECAGRKGVFPDPSIDPVIQIASIVTQYGDSTPFVRNVFCVDTCSQIVGTQVYEFQNQAEMLSSWSKFVRDVDPDVLIGYNICNFDIPYLLDRAKSLRIHNFPLLGRIHNFFSVAKETTFSSKAYGTRESKTTSIPGRLQLDMLQVMQRDFKLRSYSLNAVCSQFLGEQKEDVHYSIITDLQNGTADSRRRLAIYCLKDAYLPQRLMDKLMCFVNYTEMARVTGVPFNFLLARGQQIKVISQLFRKALQHDLVVPNIRVNGTDEQYEGATVIEPIKGYYDTPIATLDFSSLYPSIMQAHNLCYTTLLDSNTAELLKLKQDVDYSVTPNGDYFVKPHVRKGLLPIILADLLNARKKAKADLKKETDPFKKAVLDGRQLALKVSANSVYGFTGATNGRLPCLAISSSVTSYGRQMIEKTKDVVEKRYRIENGYSHDAVVIYGDTDSVMVKFGVKTLPEAMKLGEEAANYVSDQFPNPIKLEFEKVYFPYLLISKKRYAGLFWTRTDTYDKMDSKGIETVRRDNCPLVSYVIDTALRKMLIDQDVEGAQLFTKKVISDLLQNKIDMSQLVITKALSKTDYAAKMAHVELAERMRKRDAGSAPAIGDRVAYVIIKGAQGDQFYMRSEDPIYVLENNIPIDAKYYLENQLSKPLLRIFEPILGEKASSLLHGDHTRTISMAAPSVGGIMKFAVKVETCLGCKAPIKKGKTALCENCLNRSAELYQRQVAQVNDLEVRFARLWTQCQRCQGSMHQDVICTSRDCPIFYMRIAEHKKLQQSVDLLKRFDEMSW
notes: DNA polymerase delta catalytic subunit Pol3, S. pombe; prey plasmid named pACT-Pol3 in the results and pGAD2F-Pol3 in the methods; also called Gal4-Pol3; pACT-Pol3; source: yeast two-hybrid fusion, in S. cerevisiae CTY10-5d
- two-hybrid beta-galactosidase activity, % of wild-type Cdc1 (Cdc1-J7): < 1%
- two-hybrid beta-galactosidase activity, % of wild-type Cdc1 (Cdc1-E4): 16%
- two-hybrid beta-galactosidase activity, % of wild-type Cdc1 (Cdc1-A8): 17%
- two-hybrid beta-galactosidase activity, % of wild-type Cdc1 (Cdc1-J3): 54%
